Consider 7 substances from paper PMC12334862.

The term stoichiometry N denotes a count of units in the complex or per binding partner. One may read the Kd as the concentration at which binding is half-saturated.

The target of assay [1] is His6-tagged dimerization-deficient rat gephyrin variant (G483D, S505F), trimers (ddGephT) (rat). In words: SEC; single proteins: preparative Superdex 200 16/60 after Ni-NTA and analytical Superose 6 increase; molecular weights by comparison to standard proteins; oligomeric state of the protein with itself. In general terms: Size exclusion chromatography separates by hydrodynamic size, large species first.

The target of assay [2] is His6-tagged rat gephyrin P1, wild type, high oligomers (GephHO) (rat). In words: SEC; as a1 with 1.5 nmol of the respective PIP (10 mol% in POPC) or POPC alone in DDM micelles added; SEC buffer with 0.01% DDM; height of the > 5 MDa void peak P1 at 280 nm.
Assay [3] deals with His6-tagged rat gephyrin E-domain, wild type (WT-GephE) (rat). In words: mass photometry; Refeyn TwoMP; 5 nM final in 25 mM Tris/HCl pH 7.5, 150 mM NaCl, 5 mM β-mercaptoethanol, 1% glycerol; 60 s.
For assay [4], the target named is His6-tagged rat gephyrin P1, wild type, high oligomers (GephHO) (rat). In words: SEC; single proteins: preparative Superdex 200 16/60 after Ni-NTA and analytical Superose 6 increase; molecular weights by comparison to standard proteins; oligomeric state of the protein with itself.
For assay [5], the target named is His6-tagged rat gephyrin P1, wild type, trimers (GephT) (rat). Described as above.
The target in assay [6] is collybistin CB2SH3+ (Rattus norvegicus) (UniProt Q9QX73). In words: FRET. The following applies: cited from earlier work.
Chain of collybistin CB2SH3+ (Rattus norvegicus) (Q9QX73 whole entry): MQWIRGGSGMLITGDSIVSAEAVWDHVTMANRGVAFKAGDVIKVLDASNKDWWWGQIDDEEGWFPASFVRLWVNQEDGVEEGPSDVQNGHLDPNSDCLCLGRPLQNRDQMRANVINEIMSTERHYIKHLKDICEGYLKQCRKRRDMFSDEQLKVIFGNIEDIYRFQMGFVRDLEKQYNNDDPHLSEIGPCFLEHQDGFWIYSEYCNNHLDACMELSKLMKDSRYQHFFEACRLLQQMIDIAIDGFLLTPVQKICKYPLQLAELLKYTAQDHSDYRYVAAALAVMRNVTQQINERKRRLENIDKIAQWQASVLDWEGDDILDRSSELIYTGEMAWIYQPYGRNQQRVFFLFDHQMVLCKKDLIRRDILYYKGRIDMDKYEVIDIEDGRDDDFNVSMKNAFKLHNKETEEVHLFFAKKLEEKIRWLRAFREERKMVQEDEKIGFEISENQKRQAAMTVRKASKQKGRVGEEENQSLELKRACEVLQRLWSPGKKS
Assay [7] addresses gephyrin from pig brain (pig (endogenous in pig brain tissue)). In words: native gel or EMSA; blue native PAGE (4%-16%) of the cytosol fraction of pig brain, western blot for gephyrin. On the technique in general: A gel shift assay detects complexes by their altered migration in electrophoresis.

Chain of gephyrin E-domain (Q03555 326-768): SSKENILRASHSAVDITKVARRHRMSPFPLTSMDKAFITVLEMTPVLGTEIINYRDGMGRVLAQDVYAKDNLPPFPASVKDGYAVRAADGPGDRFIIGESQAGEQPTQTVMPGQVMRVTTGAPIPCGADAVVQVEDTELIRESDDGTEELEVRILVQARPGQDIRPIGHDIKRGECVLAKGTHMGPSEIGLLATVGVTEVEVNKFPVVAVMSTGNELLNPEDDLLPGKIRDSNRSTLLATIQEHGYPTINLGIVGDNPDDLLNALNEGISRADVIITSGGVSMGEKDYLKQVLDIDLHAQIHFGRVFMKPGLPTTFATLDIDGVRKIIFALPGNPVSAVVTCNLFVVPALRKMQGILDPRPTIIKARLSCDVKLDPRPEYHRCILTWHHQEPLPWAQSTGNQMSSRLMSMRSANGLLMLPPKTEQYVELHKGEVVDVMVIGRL

Turning to “His6-tagged dimerization-deficient rat gephyrin variant (G483D, S505F), trimers (ddGephT) (natural protein)”, the stoichiometry N in assay [1] came to 3.

Regarding “His6-tagged rat collybistin isoform 2 lacking the SH3 domain (CB2_(SH3-)) (natural protein)”, in assay [2], the P1 (> 5 MDa complex peak) absorption at 280 nm with PI(3,4)P2 was determined as 344 mAU, the P1 (> 5 MDa complex peak) absorption at 280 nm with PI(3,4,5)P3 was determined as 378 mAU, the P1 (> 5 MDa complex peak) absorption at 280 nm with PI(4,5)P2 came out at 255 mAU and the P1 (> 5 MDa complex peak) absorption at 280 nm with POPC was 148 mAU. Further, in assay [2], the increase of the CB2SH3- band share within P1 with PI(3,4,5)P3 against the POPC control worked out at 22% and the increase of the GephHO band share within P1 with PI(3,4,5)P3 against the POPC control amounted to 21%.

As to “His6-tagged rat gephyrin E-domain, wild type (WT-GephE) (domain or fragment)”, the stoichiometry N in assay [3] stood at 2.

Take “His6-tagged rat gephyrin P1, wild type, high oligomers (GephHO) (natural protein)”: the stoichiometry N in assay [4] is 12.

For the substance “His6-tagged rat gephyrin P1, wild type, trimers (GephT) (natural protein)”, in assay [5], the stoichiometry N amounted to 3.

On to gephyrin E-domain (from UniProt Q03555), for which, in assay [6], the Kd is 6.3 µM.

The substance “gephyrin from pig brain (natural protein)” yielded a stoichiometry N in assay [7] of 3.
